The text below walks through data of US20160251675.

The data set has as its system Plant OsNAM12.1 (SUMOylated, from rice root protein extract; genotype of the sample not stated).

Take deSUMOylating protease Ulp1: the “deSUMOylation by protease treatment, immunoblot” value is on record as “putative di-SUMOylated (-53 kD; 29+12+12) rather than the putative mono-SUMOylated (-41 kD; 29+12) OsNAM12.1 was preferentially deSUMOylated”.
